# From patent US20120321619A1 (Bayer, published 2012)
# Residue numbers refer to the chain shown, from its start.
# T1: murine C4.4a on transfected CHO-S:mC4.4a cells (mouse, UniProt Q91YK8 33-343)
# T1 construct: full length GPI-anchored form, stably transfected; also called Mouse C4.4a:CHO; mC4.4a: CHO
# T1 sequence: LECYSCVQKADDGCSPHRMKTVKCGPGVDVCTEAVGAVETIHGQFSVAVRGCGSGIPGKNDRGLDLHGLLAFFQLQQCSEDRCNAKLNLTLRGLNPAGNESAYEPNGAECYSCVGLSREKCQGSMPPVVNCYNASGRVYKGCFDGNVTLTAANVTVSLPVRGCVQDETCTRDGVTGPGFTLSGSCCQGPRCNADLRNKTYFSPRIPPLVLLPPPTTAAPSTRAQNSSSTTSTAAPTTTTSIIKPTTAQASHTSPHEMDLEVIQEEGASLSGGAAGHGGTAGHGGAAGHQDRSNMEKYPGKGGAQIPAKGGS
# T2: recombinant soluble human C4.4a (human, UniProt O95274 31-308)
# T2 construct: recombinant, soluble, purified protein; also called hC4.4a; full length C4.4a
# T2 sequence: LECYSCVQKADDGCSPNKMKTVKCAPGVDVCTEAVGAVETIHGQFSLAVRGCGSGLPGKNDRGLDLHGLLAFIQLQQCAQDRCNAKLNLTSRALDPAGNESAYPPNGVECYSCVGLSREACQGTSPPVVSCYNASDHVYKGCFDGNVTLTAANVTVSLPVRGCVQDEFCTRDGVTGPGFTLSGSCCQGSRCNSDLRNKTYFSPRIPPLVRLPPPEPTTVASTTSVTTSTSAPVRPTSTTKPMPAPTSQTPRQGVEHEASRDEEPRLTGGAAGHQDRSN
# T3: recombinant soluble murine C4.4a (mouse, UniProt Q91YK8 33-343, limits assumed)
# T3 construct: also called mouse C4.4a; mC4.4a
# T3 sequence (looked up): T1 sequence
# T4: human C4.4a on transfected A549:hC4.4a cells (human, UniProt O95274 31-326)
# T4 sequence: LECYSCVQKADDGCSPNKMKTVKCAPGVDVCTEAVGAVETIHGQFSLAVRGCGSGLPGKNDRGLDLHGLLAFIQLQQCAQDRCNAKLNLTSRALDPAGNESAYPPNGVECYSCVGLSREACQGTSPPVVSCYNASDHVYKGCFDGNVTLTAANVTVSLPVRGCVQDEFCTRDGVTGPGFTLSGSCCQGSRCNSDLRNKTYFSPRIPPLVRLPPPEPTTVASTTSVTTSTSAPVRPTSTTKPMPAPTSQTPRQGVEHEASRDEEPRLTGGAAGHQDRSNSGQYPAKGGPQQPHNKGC
# T5: human C4.4a natively expressed on tumor cell lines (human, UniProt O95274 31-326)
# T5 construct: whole, on cells; also called NCI H292; NCI H322
# T5 sequence (looked up): T4 sequence
# B1: B01-5 (antibody, human IgG1, V domains shown)
# VH: EVQLLESGGGLVQPGGSLRLSCAASGFTFSNAWMSWVRQAPGKGLEWVSYISSSGSTIYYADSVKGRFTISRDNSKNTLYLQMNSLRAEDTAVYYCAREGLWAFDYWGQGTLVTVSS
# VL: QSVLTQPPSVSGAPGQRVTISCTGSSSNIGAGYVVHWYQQLPGTAPKLLIYDNNKRPSGVPDRFSGSKSGTSASLAISGLRSEDEADYYCAAYDDSLSGPVFGGGTKLTVLG
# notes: tested as human IgG1; also called B01-05
# B2: B01-10 (antibody, human IgG1, V domains shown)
# VH: B1 VH with N31S
# VL: B1 VL
# notes: tested as human IgG1
# B3: B01-3 (antibody, human IgG1, V domains shown)
# VH: B1 VH
# VL: B1 VL with Q1E, Y93W, S96R, S98N
# notes: tested as human IgG1; also called B01-03
# B4: D02-6 (antibody, human IgG1, V domains shown)
# VH: EVQLLESGGGLVQPGGSLRLSCAASGFTFSDYQMTWIRQTPGKGLEWVSGISWNGGSTHYADSVKGRFTISRDNSKNTLYLQMNSLRAEDTAVYYCAKGDYLVYSSYYFKSWGQGTLVTVSS
# VL: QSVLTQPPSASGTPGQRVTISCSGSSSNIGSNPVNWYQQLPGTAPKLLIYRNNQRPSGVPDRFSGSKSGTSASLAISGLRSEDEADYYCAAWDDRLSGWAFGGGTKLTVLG
# notes: tested as human IgG1; also called D02-06
# B5: D02-13 (antibody, human IgG1, V domains shown)
# VH: B4 VH with D31S, T40A, S105K
# VL: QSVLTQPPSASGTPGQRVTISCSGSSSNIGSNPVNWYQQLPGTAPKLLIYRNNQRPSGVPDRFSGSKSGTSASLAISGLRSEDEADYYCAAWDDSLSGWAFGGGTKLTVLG
# notes: tested as human IgG1
# B6: D02-11 (antibody, V domains shown)
# VH: B4 VH
# VL: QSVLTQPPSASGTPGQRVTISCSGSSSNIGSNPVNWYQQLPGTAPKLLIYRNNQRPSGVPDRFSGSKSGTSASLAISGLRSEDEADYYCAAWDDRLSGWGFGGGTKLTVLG
# notes: tested as human IgG1
# B7: D02-7 (antibody, human IgG1, V domains shown)
# VH: B4 VH with S105K
# VL: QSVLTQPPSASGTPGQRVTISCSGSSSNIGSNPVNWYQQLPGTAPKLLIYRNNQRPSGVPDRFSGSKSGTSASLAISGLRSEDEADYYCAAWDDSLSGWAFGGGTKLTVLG
# notes: tested as human IgG1; also called D02-07
# Target: T1, murine C4.4a on transfected …
# Assay: FACS titration of IgG1 on CHO-S:mC4.4a cells
row,EC50 [nM],Binder
1,1.2,B1
2,0.43,B2
3,0.36,B3
4,1,B4
5,2,B5
6,1.7,B6
7,0.78,B7

# Target: T2, recombinant soluble human C4.4a
# Assay: SPR (Biacore T100), IgG1 captured by anti-human Fc, soluble C4.4a injected, 1:1 fit
# Method: (§1) Binding affinities of anti C4.4 antibodies were determined by surface plasmon resonance analysis on a Biacore T100 instrument (GE Healthcare Biacore, Inc.). Antibodies were immobilized onto a CM5 sensor chip through an indirect capturing reagent, anti-human IgG Fc. Reagents from the “Human Antibody Capture Kit” (BR-1008-39, GE Healthcare Biacore, Inc.) were used as described by the manufacturer. Approximately 5000 RU monoclonal mouse anti-human IgG (Fc) antibody were immobilized per cell. Anti C4.4 antibodies were injected at a concentration of 5 μg/ml at 10 μl/min for 10 sec to reach a capturing level of approximately 200 to 600 RU. Various concentrations (400 nM, 200 nM, 100 nM, 50 nM, 25 nM, 12.5 nM, 6.25 nM, and 3.12 nM) in HEPES-EP buffer (GE Healthcare Biacore, Inc.) of human or murine C4.4a were injected over immobilized anti C4.4a antibodies at a flow rate of 60 μl/min for 3 minutes and the dissociation was allowed for 10 minutes. Sensograms were generated after in-line reference cell correction followed by buffer sample subtraction. The dissociation equilibrium constant (KD) was calculated based on the ratio of association (kₒₙ) and dissociation rated (koff) constants, obtained by fitting sensograms with a first order 1:1 binding model using Biavaluation Software (version 4.0).
row,Kd [nM],Binder
1,4,B1
2,4,B2
3,60,B3
4,6,B4
5,2,B5
6,10,B6
7,9,B7

# Target: T3, recombinant soluble murine C4.4a
# Assay: as above
# Method: as §1
row,Kd [nM],Binder
1,10,B1
2,1,B2
3,120,B3
4,21,B4
5,42,B5
6,24,B6
7,22,B7

# Target: T4, human C4.4a on transfected A549:hC4.4a …
# Assay: cell-based or functional assay
row,internalization t½ [min] into A549:hC4.4a cells (CypHer 5E labeled antibody) [min],Binder
1,30,B2
2,55,B3
3,39,B4
4,22,B6
5,33,B7

# Target: T5, human C4.4a natively expressed on tumor …
# Assay: FACS titration of IgG1 on NCI H292 cells
# Method: FACS titration was performed in a 96 well microtiter plate, in which serial dilutions of the primary antibody in a volume of 50 W of FACS buffer (3% FCS, in PBS) were mixed with 50 μl of a cell suspension consisting of 2×10^5 cells/ml which had been detached with Cell Dissociation Solution (1×) Non-enzymatic (Sigma), and resuspended in FACS buffer. Incubation was performed at 4° C. for 1 hour with agitation. Cells were pelleted, washed with FACS buffer and resuspended in 100 μl/well of Phycoerythrin labeled goat anti human IgG (Dianova) solution in FACS buffer. Incubation and washing was performed as before. Analysis of cell-bound antibodies was done at the respective detection wavelength using the FACS Array device. EC₅₀ values were determined from fluorescence medians of duplicates using Swift 8.0 software.
row,EC50 [nM],Binder
1,0.05,B1
2,0.1,B2
3,0.06,B3
4,0.02,B4
5,0.12,B5
6,0.01,B6
7,0.03,B7
